Measured values reported in patent publication US20090214574A1 (AFFIMED, published 2009).

B1: affinity matured anti-CD16A scFv 3-LB6 (scFv)
scFv: EVQLVQSGAEVKKPGESLKVSCKASGYTFTSYYMHWVRQAPGQGLEWMGIINPSGGSTSYAQKFQGRVTMTRDTSTSTVYMELSSLRSEDTAVYYCARGSAYYYDFADYWGQGTLVTVSSGSASAPTLKLEEGEFSEARVQAVLTQPPSVSVAPGQTARIPCEGNNIGSKNVHWYRQKPGQVPVLVMYDDSDRPSGIPERFSGSNSGNTATLTISGTQAMDEADYYCQVWDNYSVLFGGGTKLTVLGQPKAAPSVTLFPPSAAAGSEQKLISEEDLNSHHHHHH
notes: IMAC-purified from pSKK2
B2: affinity matured anti-CD16A scFv 3-LS49 (scFv)
scFv: EVQLVQSGAEVKKPGESLKVSCKASGYTFTSYYMHWVRQAPGQGLEWMGIINPSGGSTSYAQKFQGRVTMTRDTSTSTVYMELSSLRSEDTAVYYCARGSAYYYDFADYWGQGTLVTVSSGSASAPTLKLEEGEFSEARVQPVLTQPLSVSVAPGQTARITCGGNNIGSKNVHWYQQKPGQAPVLVIYRDSSRPSGIPERLSGSNSGDTATLTISRAQAGDEADYYCQVWDDYIVVFGGGTKLTVLGQPKAAPPVTLFPPSAAAGSEQKLISEEDLNSHHHHHH
notes: IMAC-purified from pSKK2
B3: affinity matured anti-CD16A scFv 3-LB3 (scFv)
scFv: EVQLVQSGAEVKKPGESLKVSCKASGYTFTSYYMHWVRQAPGQGLEWMGIINPSGGSTSYAQKFQGRVTMTRDTSTSTVYMELSSLRSEDTAVYYCARGSAYYYDFADYWGQGTLVTVSSGSASAPTLKLEEGEFSEARVSYELTQPLSESVAQGQTARITCGGNNIESRNVHWYQQKPGQAPVLVIYRDNNRPSGIPERFSGSNSGNMATLTISRAQAGDAADYYCQVWDNYTVLFGGGTKLTVLGQPKAAPSVTLFPPSAAAGSEQKLISEEDLNSHHHHHH
notes: IMAC-purified from pSKK2
B4: affinity matured anti-CD16A scFv 3-LB5 (scFv)
scFv: EVQLVQSGAEVKKPGESLKVSCKASGYTFTSYYMHWVRQAPGQGLEWMGIINPSGGSTSYAQKFQGRVTMTRDTSTSTVYMELSSLRSEDTAVYYCARGSAYYYDFADYWGQGTLVTVSSGSASAPTLKLEEGEFSEARVSYELTQPPSVAVAPGKTARITCGGNNIGSKNVHWYQQKPGQAPVLVIYRDSNRPSGIPERFSGSNSGNTATLTISRAQAGDEADFYCQVWDNYIVLFGGGTKLTVLGQPKAAPSVTLFPPSAAAGSEQKLISEEDLNSHHHHHH
notes: IMAC-purified from pSKK2; oligomeric state not analysed
B5: affinity matured anti-CD16A scFv 4-LS14 (scFv)
scFv: EVQLVQSGAEVKKPGESLKVSCKASGYTFTSYYMHWVRQAPGQGLEWMGIINPSGGSTSYAQKFQGRVTMTRDTSTSTVYMELSSLRSEDTAVYYCARGSAYYYDFADYWGQGTLVTVSSGSASAPTLKLEEGEFSEARVSYELTQPPSVSVTPGQTATITCGANDIGKRNVHWYQQRPGQSPVLVIYQDNKRPSGIPERFSGSNSGNTATLTISGTQAMDEADYYCQVWDNYSVLFGGGTKLTVLGQPKAAPSVTLFPPSAAAGSEQKLISEEDLNSHHHHHH
notes: IMAC-purified from pSKK2

molecular target: T1, human CD16A-Fc^48R/158V fusion protein (human, UniProt P08637 17-208, limits assumed); assay: SPR, kinetic and steady state analysis
T1 construct: Secreted soluble fusion made in HEK-293 cells; also called CD16-Fc; CD16A Fc-fusion protein; not shown: Fc portion of human IgG1
Experimental: (§1) The affinity constants (KD values) of the scFv were determined by SPR using the BIAcore 2000 biosensor system (Amersham-Pharmacia). The CD16A-Fc fusion protein and BSA used as a negative control were immobilized on the carboxymethyldextran-coated sensor chip CM5 using conventional NHS/EDC chemistry for the amine coupling procedure (BIAcore). Purified scFvs were diluted in HBS-EP buffer (BIAcore, Uppsala, Sweden). Binding data was generated by passing varying concentrations of the scFv antibodies (100 nM, 200 nM, 400 nM, 800 nM and 1600 nM) over the immobilized antigen. […] All SPR measurements were performed at a constant flow rate of 20 μL/min in HBS-EP buffer at 25° C. Each injected sample (100 μl) was in contact with antigen for 5 minutes. The dissociation was followed for 30 minutes. After each cycle, the surface of the sensor chip was flushed with HBS-EP buffer. Signals from the control channel coated with BSA were automatically subtracted. Kinetic constants were calculated according to the 1/1 Langmuir binding model using the BIAevaluation version 3.0 software (BIAcore).

T1 sequence (P08637 17-208 L66R/F176V limits assumed): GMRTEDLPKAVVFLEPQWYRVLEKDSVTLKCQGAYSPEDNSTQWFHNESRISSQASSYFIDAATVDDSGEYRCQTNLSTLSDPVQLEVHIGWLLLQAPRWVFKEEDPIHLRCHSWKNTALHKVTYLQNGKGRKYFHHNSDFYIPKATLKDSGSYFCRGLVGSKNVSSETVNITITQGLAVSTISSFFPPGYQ

Binder	fold improvement of affinity over parental clone 50NI
B1	> 20 fold

molecular target: T1, human CD16A-Fc^48R/158V fusion protein; assay: SPR, BIAcore 2000, CD16A-Fc immobilized on CM5, 1:1 Langmuir
Experimental: as §1

Binder	koff	kon
B2	0.00401 s⁻¹	29300 M⁻¹ s⁻¹
B3	0.00297 s⁻¹	21600 M⁻¹ s⁻¹
B4	0.00297 s⁻¹	73300 M⁻¹ s⁻¹
B1	0.00652 s⁻¹	54800 M⁻¹ s⁻¹
B5	0.00557 s⁻¹	50900 M⁻¹ s⁻¹

molecular target: T2, NKp46 extracellular domain fused to zeta chain, on transiently transfected HEK-293 cells (293/NKp46) (human, UniProt O76036 22-258; P20963 31-164); assay: flow cytometry on 293/NKp46 cells; scFv, anti-hexa His MAb 13/45/31-2, FITC goat anti-mouse IgG; MFI minus secondary reagents alone
T2 construct: extracellular domain;domain: transmembrane and cytoplasmic domain; On the cell surface; also called NKp46-transfectants; pcDNA3-NKp46-zeta
Experimental: (§2) The mean fluorescence intensities obtained from flow cytometric analysis were corrected by subtracting the fluorescence values from cell stainings with the secondary reagents alone, and plotted in the diagram.
(§3) For flow cytometric analysis, the following cell lines were used: BW and BW/CD16A transfectants were cultured as described previously. […] The transient transfections were performed using the calcium phosphate method as described in Example 1 and were used for flow cytometric staining and analysis two days after transient transfection. Flow cytometric staining and analysis was performed as essentially described before.

T2 sequence (O76036 other isoform, or with tags, fused parts or gaps limits assumed): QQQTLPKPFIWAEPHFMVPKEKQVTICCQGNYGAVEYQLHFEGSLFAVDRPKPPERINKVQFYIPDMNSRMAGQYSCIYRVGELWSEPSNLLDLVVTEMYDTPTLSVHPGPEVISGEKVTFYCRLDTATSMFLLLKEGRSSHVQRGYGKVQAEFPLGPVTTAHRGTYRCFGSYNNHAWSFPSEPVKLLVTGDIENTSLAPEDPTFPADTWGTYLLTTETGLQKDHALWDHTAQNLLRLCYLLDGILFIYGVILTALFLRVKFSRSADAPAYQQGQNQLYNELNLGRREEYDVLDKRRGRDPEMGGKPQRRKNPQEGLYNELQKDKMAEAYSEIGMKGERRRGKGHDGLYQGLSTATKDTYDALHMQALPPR

Binder	binding result
B2	no binding (tested: 50 µg/mL)
B3	no binding (tested: 50 µg/mL)
B4	no binding (tested: 50 µg/mL)
B1	no binding (tested: 50 µg/mL)
B5	no binding (tested: 50 µg/mL)

molecular target: T3, NKp46-Fc (UniProt O76036 22-258, limits assumed); assay: Western blot on NKp46-Fc
T3 construct: Negative control protein; also called NKp46-Fc control protein; not shown: Fc part, not described
Experimental: For further characterization all of the anti-CD16A scFv were tested for binding in Western Blot on recombinant CD16A-Fc and NKp46-Fc.
The proteins were transferred on a nitrocellulose membrane by electroblotting. After staining with Ponceau S, the membrane was cut into strips of 5 mm width. Each nitrocellulose strip was individually incubated with scFv (4 μg/ml) in PBS, 0.1% tween, 2% skimmed milk. Detection was carried out with the anti-Penta His HRP-conjugate (1 μg/mL) using diaminobenzidine (DAB) as a peroxidase substrate. […] As an additional positive control, a goat anti-human IgG HRP-conjugate (0.16 μg/mL) was used for detection of the Fc portion of the fusion proteins.

T3 sequence (O76036 22-258 limits assumed): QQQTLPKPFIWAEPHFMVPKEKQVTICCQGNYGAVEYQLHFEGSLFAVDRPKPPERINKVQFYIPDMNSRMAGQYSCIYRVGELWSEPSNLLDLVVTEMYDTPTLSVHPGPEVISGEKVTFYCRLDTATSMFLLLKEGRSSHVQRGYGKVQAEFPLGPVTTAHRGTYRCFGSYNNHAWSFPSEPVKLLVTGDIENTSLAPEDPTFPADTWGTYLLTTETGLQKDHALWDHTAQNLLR

Binder	binding result
B2	no binding (tested: 4 µg/ml)
B3	no binding (tested: 4 µg/ml)
B4	no binding (tested: 4 µg/ml)
B1	no binding (tested: 4 µg/ml)
B5	no binding (tested: 4 µg/ml)

molecular target: T1, human CD16A-Fc^48R/158V fusion protein; assay: SPR, BIAcore 2000, CD16A-Fc immobilized on CM5, koff/kon
Experimental: as §1

Binder	Kd
B2	137 nM
B3	138 nM
B4	40.5 nM
B1	119 nM
B5	109 nM

molecular target: T4, human CD16B (NA-2 allele) on stably transfected HEK-293 cells (293/CD16B) (human, UniProt O75015 17-200); assay: flow cytometry on 293/CD16B cells; scFv, anti-hexa His MAb 13/45/31-2, FITC goat anti-mouse IgG; MFI minus secondary reagents alone
T4 construct: whole, on cells
Experimental: as §2, §3

T4 sequence (O75015 17-200 N65S): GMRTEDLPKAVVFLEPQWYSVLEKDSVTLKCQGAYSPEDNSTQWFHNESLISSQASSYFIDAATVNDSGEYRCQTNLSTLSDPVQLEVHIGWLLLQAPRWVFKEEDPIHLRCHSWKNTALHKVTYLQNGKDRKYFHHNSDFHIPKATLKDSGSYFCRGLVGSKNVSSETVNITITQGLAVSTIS

Binder	binding result
B2	no binding (tested: 50 µg/mL)
B3	no binding (tested: 50 µg/mL)
B4	no binding (tested: 50 µg/mL)
B1	no binding (tested: 50 µg/mL)
B5	no binding (tested: 50 µg/mL)

molecular target: T5, commercially available recombinant CD16B (Allele NA-2; BSA free; RD Systems) (UniProt O75015 17-200, limits assumed); assay: ELISA on recombinant CD16B coated at 80 nM; scFv detected with anti-c-Myc-HRP (10 µg/ml)
T5 construct: also called recombinant CD16B-Fc
Experimental: FIG. 3: ELISA on recombinant CD16A-Fc and CD16B. Recombinant CD16A-Fc and CD16B proteins were coated at 80 nM in 0.1 M NaHCO₃, pH 8.8. Wells were blocked with PBS, 2% skimmed milk. The binding of the scFv to the recombinant proteins and to gp34-Fc (negative control) was detected using an anti-c-Myc-HRP conjugate (10 μg/ml). […] Coated recombinant CD16B was directly detected by staining with an anti-His-HRP (1 μg/mL) and coating of the Fc-Fusion proteins was tested by an anti-human IgG-HRP conjugate (0.5 μg/mL). As HRP-substrate, 50 μL of TMB were used. After termination of the reaction with 50 μL 0.5 M H₂SO₄, absorbance was measured at 450 nm.
In order to generate further supporting data concerning the CD16A specificity of the scFvs, an ELISA was performed using the CD16A-Fc fusion protein (Example 1) and commercially available recombinant CD16B-Fc (Allele NA-2; BSA free; RD Systems). A gp34-Fc fusion protein was used as a negative control. The recombinant proteins were coated overnight at a concentration of 80 nM in 100 mM NaHCO₃ at pH 8.8.
Detection of scFv bound to the recombinant proteins was carried out by using an anti-c-myc-HRP conjugate (10 μg/ml). […] Binding to the recombinant CD16B was tested by directly staining with anti-His-HRP (1 μg/mL) and binding to the Fc-Fusion proteins was tested by an anti-human IgG-HRP conjugate (0.15 μg/mL).

T5 sequence (O75015 17-200 N65S limits assumed): as the sequence (O75015 17-200 N65S) above

Binder	binding result
B2	no binding (tested: not given)
B3	no binding (tested: not given)
B4	no binding (tested: not given)
B1	no binding (tested: not given)
B5	no binding (tested: not given)

molecular target: T1, human CD16A-Fc^48R/158V fusion protein; assay: SPR, steady state analysis (column Keq)
Experimental: as §1

Binder	Kd
B1	106 nM

molecular target: T6, native CD16B on human polymorphonuclear cells (neutrophilic granulocytes) (human, UniProt O75015 17-200); assay: flow cytometry on freshly isolated PMN; scFv, anti-(His)6 MAb, FITC goat anti-mouse IgG; MFI minus secondary reagents alone
T6 construct: whole, on cells; also called PMN; CD16B-positive granulocytes
Experimental: Polymorphonuclear cells (PMN) and natural killer (NK) cells were isolated from peripheral blood from a healthy donor and used for flow cytometric staining and analysis. […] All scFv were used at a concentration of 50 μg/mL and were detected with 10 μg/mL anti-(His)₆ followed by 15 μg/mL FITC-conjugated goat anti-mouse IgG. The mean fluorescence intensities obtained from flow cytometric analysis were corrected by subtracting the fluorescence values from cell stainings with the secondary reagents alone and were plotted in the diagram.
Enrichment of NK cells was performed by negative selection as described above.

T6 sequence (O75015 17-200): as the sequence (O75015 17-200 N65S) above, with S49N counted along it

Binder	binding result
B2	no binding (tested: 50 µg/mL)
B3	no binding (tested: 50 µg/mL)
B4	no binding (tested: 50 µg/mL)
B1	no binding (tested: 50 µg/mL)
B5	no binding (tested: 50 µg/mL)
